Source: PMC11574045, “A cofactor-induced repressive type of transcription factor condensation can be induced by synthetic peptides to suppress tumorigenesis” (The EMBO Journal, 2024)
Numbering of substitutions follows the chain as printed.

System: HEK293FT cells transfected with TF library
Assay: Screening of TF condensates based on fluorescent puncta
Type: cell-based
Conditions: Figure 1B numerical data; TF library screen, one value per transcriptional factor
In short: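 Cells were seeded onto plasmid/PEI-loaded wells (plasmid 1.6 μg/ml final) and grown 60 h. Medium with or without glucose followed for 12 h. Fixed, permeabilized cells were stained against Flag or GAL4 tags, and condensate puncta were quantified from 50 random fields per well.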

B1: FOXA1 (protein, UniProt P55317 1-472, looked up)
Hepatocyte nuclear factor …: MLGTVKMEGHETSDWNSYYADTQEAYSSVPVSNMNSGLGSMNSMNTYMTMNTMTTSGNMTPASFNMSYANPGLGAGLSPGAVAGMPGGSAGAMNSMTAAGVTAMGTALSPSGMGAMGAQQAASMNGLGPYAAAMNPCMSPMAYAPSNLGRSRAGGGGDAKTFKRSYPHAKPPYSYISLITMAIQQAPSKMLTLSEIYQWIMDLFPYYRQNQQRWQNSIRHSLSFNDCFVKVARSPDKPGKGSYWTLHPDSGNMFENGCYLRRQKRFKCEKQPGAGGGGGSGSGGSGAKGGPESRKDPSGASNPSADSPLHRGVHGKTGQLEGAPAPGPAASPQTLDHSGATATGGASELKTPASSTAPPISSGPGALASVPASHPAHGLAPHESQLHLKGDPHYSFNHPFSINNLMSSSEQQHKLDFKAYEQALQYSPYGSTLPASLPLGSASVTTRSPIEPSALEPAYYQGVYSRPVLNTS
Z score of condensed fraction: -0.3489

B2: FOXD4L4 (protein, UniProt Q8WXT5 1-416, looked up)
Forkhead box protein D4-like 4: MNLPRAERPRSTPQRSLRDSDGEDGKIDVLGEEEDEDEVEDEEEEARQQFLEQSLQPGLQVARWGGVALPREHIEGGGGPSDPSEFGTKFRAPPRSAAASEDARQPAKPPYSYIALITMAILQNPHKRLTLSGICAFISGRFPYYRRKFPAWQNSIRHNLSLNDCFVKIPREPGHPGKGNYWSLDPASQDMFDNGSFLRRRKRFKRHQLTPGAHLPHPFPLPAAHAALHNPHPGPLLGAPAPPQPVPGAYPNTAPGRRPYALLHPHPLRYLLLSARVYAGAPKKAEGADLATPAPFPCCSPHLVLSLGRRARVWRRHREADASLSALRVLCKGSGERVQGLRRVCPRPRGATATCSSDHQACCIPKPLPLCCKCPPPLLLGQFCSNSSSIRRTAPTAALPPRARCWAGTCRPRRRC
Z score of condensed fraction: 0.1205

B3: FOXD4L5 (protein, UniProt Q5VV16 1-416, looked up)
Forkhead box protein D4-like 5: B2 Forkhead box protein D4-like 4 with R258C, R276P
Z score of condensed fraction: -0.7466

B4: FOXI1 (protein, UniProt Q12951 1-378, looked up)
Forkhead box protein I1: MSSFDLPAPSPPRCSPQFPSIGQEPPEMNLYYENFFHPQGVPSPQRPSFEGGGEYGATPNPYLWFNGPTMTPPPYLPGPNASPFLPQAYGVQRPLLPSVSGLGGSDLGWLPIPSQEELMKLVRPPYSYSALIAMAIHGAPDKRLTLSQIYQYVADNFPFYNKSKAGWQNSIRHNLSLNDCFKKVPRDEDDPGKGNYWTLDPNCEKMFDNGNFRRKRKRKSDVSSSTASLALEKTESSLPVDSPKTTEPQDILDGASPGGTTSSPEKRPSPPPSGAPCLNSFLSSMTAYVSGGSPTSHPLVTPGLSPEPSDKTGQNSLTFNSFSPLTNLSNHSGGGDWANPMPTNMLSYGGSVLSQFSPHFYNSVNTSGVLYPREGTEV
Z score of condensed fraction: -1.1314

B5: FOXE3 (protein, UniProt Q13461 1-319, looked up)
Forkhead box protein E3: MAGRSDMDPPAAFSGFPALPAVAPSGPPPSPLAGAEPGREPEEAAAGRGEAAPTPAPGPGRRRRRPLQRGKPPYSYIALIAMALAHAPGRRLTLAAIYRFITERFAFYRDSPRKWQNSIRHNLTLNDCFVKVPREPGNPGKGNYWTLDPAAADMFDNGSFLRRRKRFKRAELPAHAAAAPGPPLPFPYAPYAPAPGPALLVPPPSAGPGPSPPARLFSVDSLVNLQPELAGLGAPEPPCCAAPDAAAAAFPPCAAAASPPLYSQVPDRLVLPATRPGPGPLPAEPLLALAGPAAALGPLSPGEAYLRQPGFASGLERYL
Z score of condensed fraction: -0.8488

B6: FOXM1 (protein, UniProt O08696 1-760, looked up)
Forkhead box protein M1: MRTSPRRPLILKRRRLPLPVQNAPSETSEEEAKRSPAQPEPAPAQASQEVAESSSCKFPAGIKIINHPTTPNTQVVAIPSNADIQSIITALTAKGKESGTSGPNRFILISSGGPSSHPSQPQAHSSRDSKRAEVITETLGPKPAAKGVPVPKPPGAPPRQRQESYAGGEAAGCTLDNSLTNIQWLGKMSSDGLGPCSVKQELEEKENCHLEQNRVKVEEPSGVSTSWQDSVSERPPYSYMAMIQFAINSTERKRMTLKDIYTWIEDHFPYFKHIAKPGWKNSIRHNLSLHDMFVRETSANGKVSFWTIHPSANRHLTLDQVFKPLEPGSPQSPEHLESQQKRPNPELHRNVTIKTEIPLGARRKMKPLLPRVSSYLEPIQFPVNQSLVLQPSVKVPFRLAASLMSSELARHSKRVRIAPKVLLSSEGIAPLPATEPPKEEKPLLGGEGLLPLLPIQSIKEEEMQPEEDIAHLERPIKVESPPLEEWPSPCASLKEELSNSWEDSSCSPTPKPKKSYCGLKSPTRCVSEMLVTKRREKREVSRSRRKQHLQPPCLDEPDLFFPEDSSTFRPAVELLAESSEPAPHLSCPQEEGGPFKTPIKETLPVSSTPSKSVLSRDPESWRLTPPAKVGGLDFSPVRTPQGAFGLLPDSLGLMELNTTPLKSGPLFDSPRELLNSEPFDLASDPFGSPPPPHVEGPKPGSPELQIPSLSANRSLTEGLVLDTMNDSLSKILLDISFPGLEEDPLGPDNINWSQFIPELR
Z score of condensed fraction: 2.036

B7: FOSL2 (protein, UniProt P15408 1-326, looked up)
Fos-related antigen 2: MYQDYPGNFDTSSRGSSGSPAHAESYSSGGGGQQKFRVDMPGSGSAFIPTINAITTSQDLQWMVQPTVITSMSNPYPRSHPYSPLPGLASVPGHMALPRPGVIKTIGTTVGRRRRDEQLSPEEEEKRRIRRERNKLAAAKCRNRRRELTEKLQAETEELEEEKSGLQKEIAELQKEKEKLEFMLVAHGPVCKISPEERRSPPAPGLQPMRSGGGSVGAVVVKQEPLEEDSPSSSSAGLDKAQRSVIKPISIAGGFYGEEPLHTPIVVTSTPAVTPGTSNLVFTYPSVLEQESPASPSESCSKAHRRSSSSGDQSSDSLNSPTLLAL
Z score of condensed fraction: -0.8108

B8: AIOLOS (protein, UniProt Q9UKT9 1-509, looked up)
Zinc finger protein Aiolos: MEDIQTNAELKSTQEQSVPAESAAVLNDYSLTKSHEMENVDSGEGPANEDEDIGDDSMKVKDEYSERDENVLKSEPMGNAEEPEIPYSYSREYNEYENIKLERHVVSFDSSRPTSGKMNCDVCGLSCISFNVLMVHKRSHTGERPFQCNQCGASFTQKGNLLRHIKLHTGEKPFKCHLCNYACQRRDALTGHLRTHSVEKPYKCEFCGRSYKQRSSLEEHKERCRTFLQSTDPGDTASAEARHIKAEMGSERALVLDRLASNVAKRKSSMPQKFIGEKRHCFDVNYNSSYMYEKESELIQTRMMDQAINNAISYLGAEALRPLVQTPPAPTSEMVPVISSMYPIALTRAEMSNGAPQELEKKSIHLPEKSVPSERGLSPNNSGHDSTDTDSNHEERQNHIYQQNHMVLSRARNGMPLLKEVPRSYELLKPPPICPRDSVKVINKEGEVMDVYRCDHCRVLFLDYVMFTIHMGCHGFRDPFECNMCGYRSHDRYEFSSHIARGEHRALLK
Z score of condensed fraction: 0.5203

B9: FOXI2 (protein, UniProt Q6ZQN5 1-318, looked up)
Forkhead box protein I2: MATYCDDLGPSSAPPGQAQATAHPPGYEPGDLGAVGGGPLLWVNAPALSPKSYASGPGPAPPYAAPSYGAPGPLLGAPGGLAGADLAWLSLSGQQELLRLVRPPYSYSALIAMAIQSAPLRKLTLSQIYQYVAGNFPFYKRSKAGWQNSIRHNLSLNDCFKKVPRDEDDPGKGNYWTLDPNCEKMFDNGNFRRKRKRRAEASAAVRSGARSVGGAEAPALEPPSAACLDLQASPSPSAPEAATCFSGFASAMSALAGGLGTFPGGLAGDFSFGRRPPTVATHAPQTLNPSPGFAPGHQTAAAGFRLSHLLYSREGTEV
Z score of condensed fraction: -0.5391

B10: FOXD4L1 (protein, UniProt Q9NU39 1-408, looked up)
Forkhead box protein D4-like 1: MNLPRAERPRSTPQRSLRDSDGEDGKIDVLGEEEDEDEVEDEEEEASQKFLEQSLQPGLQVARWGGVALPREHIEGGGPSDPSEFGTEFRAPPRSAAASEDARQPAKPPYSYIALITMAILQSPHKRLTLSGICAFISGRFPYYRRKFPAWQNSIRHNLSLNDCFVKIPREPGHPGKGTYWSLDPASQDMFDNGSFLRRRKRFKRHQLTPGAHLPHPFPLPAAHAALHNPRPGPLLGAPALPQPVPGAYPNTAPGRRPYALLHPHPPRYLLLSAPAYAGAPKKAEGADLATPGTLPVLQPSLGPQPWEEGKGLASPPGGGCISFSIESIMQGVRGAGTGAAQSLSPTAWSYCPLLQRPSSLSDNFAATAAASGGGLRQRLRSHQGRGAGRAPVGRVGAAAVSGGGRGL
Z score of condensed fraction: -0.9826

B11: FOXA3 (protein, UniProt P55318 1-350, looked up)
Hepatocyte nuclear factor …: MLGSVKMEAHDLAEWSYYPEAGEVYSPVTPVPTMAPLNSYMTLNPLSSPYPPGGLPASPLPSGPLAPPAPAAPLGPTFPGLGVSGGSSSSGYGAPGPGLVHGKEMPKGYRRPLAHAKPPYSYISLITMAIQQAPGKMLTLSEIYQWIMDLFPYYRENQQRWQNSIRHSLSFNDCFVKVARSPDKPGKGSYWALHPSSGNMFENGCYLRRQKRFKLEEKVKKGGSGAATTTRNGTGSAASTTTPAATVTSPPQPPPPAPEPEAQGGEDVGALDCGSPASSTPYFTGLELPGELKLDAPYNFNHPFSINNLMSEQTPAPPKLDVGFGGYGAEGGEPGVYYQGLYSRSLLNAS
Z score of condensed fraction: 0.4813

B12: FOXB2 (protein, UniProt Q5VYV0 1-432, looked up)
Forkhead box protein B2: MPRPGKSSYSDQKPPYSYISLTAMAIQHSAEKMLPLSDIYKFIMERFPYYREHTQRWQNSLRHNLSFNDCFIKIPRRPDQPGKGSFWALHPDCGDMFENGSFLRRRKRFKVLRADHTHLHAGSTKSAPGAGPGGHLHPHHHHHPHHHHHHHAAAHHHHHHHPPQPPPPPPPPPPHMVHYFHQQPPTAPQPPPHLPSQPPQQPPQQSQPQQPSHPGKMQEAAAVAAAAAAAAAAAVGSVGRLSQFPPYGLGSAAAAAAAAAASTSGFKHPFAIENIIGRDYKGVLQAGGLPLASVMHHLGYPVPGQLGNVVSSVWPHVGVMDSVAAAAAAAAAAGVPVGPEYGAFGVPVKSLCHSASQSLPAMPVPIKPTPALPPVSALQPGLTVPAASQQPPAPSTVCSAAAASPVASLLEPTAPTSAESKGGSLHSVLVHS
Z score of condensed fraction: -0.2645

B13: FOXF2 (protein, UniProt O54743 1-446, looked up)
Forkhead box protein F2: MSTEGGPPPPPPRPPPAPLRRACSPAPGALQAALMSPPPAATLESTSSSSSSSSASCASSSSNSVSASAGACKSAASSGGAGAGSGGTKKATSGLRRPEKPPYSYIALIVMAIQSSPSKRLTLSEIYQFLQARFPFFRGAYQGWKNSVRHNLSLNECFIKLPKGLGRPGKGHYWTIDPASEFMFEEGSFRRRPRGFRRKCQALKPMYHRVVSGLGFGASLLPQGFDFQAPPSAPLGCHGQGGYGGLDMMPAGYDTGAGAPGHAHPHHLHHHHVPHMSPNPGSTYMASCPVPAGPAGVGAAAGGGGGGGDYGPDSSSSPVPSSPAMASAIECHSPYTSPAAHWSSPGASPYLKQPPALTPSSNPAASAGLHPSMSSYSLEQSYLHQNAREDLSVGLPRYQHHSTPVCDRKDFVLNFNGISSFHPSASGSYYHHHHQSVCQDIKPCVM
Z score of condensed fraction: 0.2019
